# Measurements as given in publication PMC8986097, “SUMO-mediated recruitment allows timely function of the Yen1 nuclease in mitotic cells” (PLoS Genetics, 2022).
# B1: Yen1-1xHA, wild-type, purified [S. cerevisiae] / GST-Smt3 [S. cerevisiae] (parent complex)
# chain 1: MGVSQIWEFLKPYLQDSRIPLRKFVIDFNKSQKRAPRIAIDAYGWLFECGFIQNIDISARSRSRSRSPTRSPRDSDIDSSQEYYGSRSYTTTGKAVINFISRLKELLSLNVEFLLVFDGVMKPSFKRKFNHEQNATTCDDEKEYYSSWEQHVKNHEVYGNCKGLLAPSDPEFISLVRKLLDLMNISYVIACGEGEAQCVWLQVSGAVDFILSNDSDTLVFGGEKILKNYSKFYDDFGPSSITSHSPSRHHDSKESFVTVIDLPKINKVAGKKFDRLSLLFFSVLLGADYNRGVKGLGKNKSLQLAQCEDPNFSMEFYDIFKDFNLEDLTSESLRKSRYRLFQKRLYLYCKDHSVELFGRNYPVLLNQGSFEGWPSTVAIMHYFHPIVQPYFDEEVLSDKYINMAGNGHYRNLNFNELKYFLQSLNLPQISSFDKWFHDSMHEMFLLREFLSIDESDNIGKGNMRITEEKIMNIDGGKFQIPCFKIRYTTFLPNIPISSQSPLKRSNSPSRSKSPTRRQMDIMEHPNSLWLPKYLIPQSHPLVIQYYETQQLIQKEKEKKGKKSNKSRLPQKNNLDEFLRKHTSPIKSIGKVGESRKEILEPVRKRLFVDTDEDTSLEEIPAPTRLTTVDEHSDNDDDSLIFVDEITNSQSVLDSSPGKRIRDLTQDEQVDVWKDVIEISPIKKSRTTNAEKNPPESGLKSRSSITINARLQGTKMLPPNLTAPRLEREHSSVLDQLVTDAQDTVDRFVACDSDSSSTIE
# chain 2: MSDSEVNQEAKPEVKPEVKPETHINLKVSDGSSEIFFKIKKTTPLRRLMEAFAKRQGKEMDSLRFLYDGIRIQADQTPEDLDMEDNDIIEAHREQIGGATY
# Variants of: B1
# Test: pull-down (GST-Smt3 on Glutathione resin, immuno-blot anti-HA); 1/10 inputs, 1/4 elution; parent: 1
row,Variant,ratio to parent
1,"chain 1 D635A, chain 1 D636A, chain 1 D637A",0.9
2,"chain 1 V675A, chain 1 E677A",0.9
